These results are taken from patent US20090208538A1.

Assay [1] concerns the target HLA-A*0201 (human). The assay is described as follows: iTopia net score.
The target in assay [2] is HLA-A*0201 (human). The assay is described as follows: iTopia affinity.
Assay [3] addresses HLA-A*0201 (human). The assay is described as follows: iTopia binding.

For the substance cdr2 246-254 RALELEAV (peptide), in the assay with HLA-A*0201 (human) [1], the iScore was found to be 0.352. For the same substance, in the assay with HLA-A*0201 (human) [2], the ED50 was 1000 nM. For the same substance, the binding vs positive control with HLA-A*0201 (human) [3] is over 30%.
